Results on three substances are retold here after patent US20250115926A1, “DEREGULATED DHS AND TYRA ENZYMES OF GRASSES ENABLE EFFICIENT PRODUCTION OF BOTH TYROSINE AND PHENYLALANINE” (priority 2023, published 2025).

For data set [1], the system named is O=C[C@H](O)[C@H](O)COP(=O)(O)O. The experiment in a line: purified protein, by the assay type. As to conditions: other: 1.5 mM PEP, 37° C., pH 7.5.
Procedure: (§1) To examine their functional properties, the recombinant DHS enzymes of Brachypodium were produced and characterized in vitro.
(§2) All DHS effectors tested were included in the initial reaction mixtures at a concentration of 0.5 mM, except for IC50 determination for arogenate and tryptophan, in which variable concentrations were used. To ensure at least 10 minutes of linear reaction, enzyme mass per reaction was carefully adjusted to between 100 to 300 ng (depending on the specific activity of each specific isoform) using DHS storage buffer supplemented with BSA. […] The enzymatic reaction was started with the addition of E4P (variable concentration, see below).
(§3) The DHS assay for UHPLC-MS quantification was set up using the same settings as described in the previous paragraph for the UV-based DHS assay, which guaranteed at least 10 minutes of reaction linearity. After a 10-minute incubation, 20 μL of the reactions (out of a total volume of 50 μL) were mixed into 80 μL of methanol, vortexed and transferred to vials for injection. Analysis of DAHP by UHPLC-MS was conducted using the same chromatographic settings as described for the UHPLC-MS analysis of soluble metabolites and compared with an authentic DAHP standard (Sta. Cruz biotechnology, cat. no. sc-216432).
The next data set relates to C=C(OP(=O)(O)O)C(=O)O. The data set can be described thus: purified protein, by the assay type. The settings on record: other: 2 mM E4P, 37° C., pH 7.5.
Data set [2] concerns O=C[C@H](O)[C@H](O)COP(=O)(O)O. The data set can be described thus: DHS activity: kinetics and effector inhibition. Format: biochemical, Brachypodium distachyon. As to conditions: other: 1.5 mM PEP, 37° C., pH 7.5.
Procedure: as §1, §2, §3

Chain of Brachypodium distachyon BdDHS2, SEQ ID NO: 5, recombinant (Brachypodium distachyon) (chain, as listed by the source): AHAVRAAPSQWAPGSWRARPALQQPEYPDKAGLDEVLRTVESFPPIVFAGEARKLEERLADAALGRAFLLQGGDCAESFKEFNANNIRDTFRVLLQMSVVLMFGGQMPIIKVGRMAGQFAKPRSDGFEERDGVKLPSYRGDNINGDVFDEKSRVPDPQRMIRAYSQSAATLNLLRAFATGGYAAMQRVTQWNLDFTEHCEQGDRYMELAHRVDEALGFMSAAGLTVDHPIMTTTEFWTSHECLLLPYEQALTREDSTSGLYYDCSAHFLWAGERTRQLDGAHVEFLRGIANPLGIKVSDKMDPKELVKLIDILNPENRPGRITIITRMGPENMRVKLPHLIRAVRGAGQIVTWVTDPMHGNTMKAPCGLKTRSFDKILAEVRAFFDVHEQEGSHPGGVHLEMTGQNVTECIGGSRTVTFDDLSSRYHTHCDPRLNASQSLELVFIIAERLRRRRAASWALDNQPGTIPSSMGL
Chain of Brachypodium distachyon BdDHS1b, SEQ ID NO: 3, recombinant (Brachypodium distachyon) (chain, as listed by the source): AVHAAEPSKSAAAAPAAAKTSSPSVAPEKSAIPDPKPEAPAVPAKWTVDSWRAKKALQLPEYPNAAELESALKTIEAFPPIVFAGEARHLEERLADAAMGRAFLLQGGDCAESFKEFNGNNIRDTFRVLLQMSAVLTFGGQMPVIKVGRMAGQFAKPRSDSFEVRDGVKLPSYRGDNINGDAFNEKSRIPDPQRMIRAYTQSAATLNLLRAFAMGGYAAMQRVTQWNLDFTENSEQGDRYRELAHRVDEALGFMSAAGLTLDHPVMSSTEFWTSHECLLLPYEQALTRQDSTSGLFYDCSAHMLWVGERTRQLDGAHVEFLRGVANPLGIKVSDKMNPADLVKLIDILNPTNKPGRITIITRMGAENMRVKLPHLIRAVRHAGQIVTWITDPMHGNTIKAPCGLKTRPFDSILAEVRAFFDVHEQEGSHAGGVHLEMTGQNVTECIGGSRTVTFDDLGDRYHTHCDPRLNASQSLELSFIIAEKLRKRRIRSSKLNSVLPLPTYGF
Chain of Brachypodium distachyon BdDHS1a, SEQ ID NO: 1, recombinant (Brachypodium distachyon) (chain, as listed by the source): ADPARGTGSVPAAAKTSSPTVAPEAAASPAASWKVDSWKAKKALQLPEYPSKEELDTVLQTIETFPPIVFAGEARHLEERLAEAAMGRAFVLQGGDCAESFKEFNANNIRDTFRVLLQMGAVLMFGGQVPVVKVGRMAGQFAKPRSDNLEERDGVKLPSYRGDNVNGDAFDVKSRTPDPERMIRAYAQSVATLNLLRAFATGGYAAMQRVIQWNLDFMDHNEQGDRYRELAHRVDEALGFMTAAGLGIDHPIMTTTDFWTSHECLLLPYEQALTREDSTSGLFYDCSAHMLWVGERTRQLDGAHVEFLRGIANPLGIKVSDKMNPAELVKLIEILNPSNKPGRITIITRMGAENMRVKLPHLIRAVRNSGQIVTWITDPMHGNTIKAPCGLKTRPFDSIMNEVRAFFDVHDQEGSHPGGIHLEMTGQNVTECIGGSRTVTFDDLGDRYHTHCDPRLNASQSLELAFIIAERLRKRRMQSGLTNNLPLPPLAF

Turning to “Brachypodium distachyon BdDHS1a, SEQ ID NO: 1, recombinant (Brachypodium distachyon)”, in data set [1], the K0.5 stood at 0.55 mM and the catalytic constant (kcat) turned out to be 17 s⁻¹. Besides, in the data set on C=C(OP(=O)(O)O)C(=O)O, the Michaelis constant (Km) was 130 µM, the kcat worked out at 17 s⁻¹ and the kcat/Km is 126000 M⁻¹ s⁻¹.

Take “Brachypodium distachyon BdDHS1b, SEQ ID NO: 3, recombinant (Brachypodium distachyon)”: in the data set on C=C(OP(=O)(O)O)C(=O)O, the Km was 200 µM, the kcat stood at 11.3 s⁻¹ and the specificity constant (kcat/Km) came to 57200 M⁻¹ s⁻¹.

For the substance “Brachypodium distachyon BdDHS2, SEQ ID NO: 5, recombinant (Brachypodium distachyon)”, in data set [2], the K0.5 amounted to 0.51 mM and the kcat was 5.6 s⁻¹. Moreover, in the data set with C=C(OP(=O)(O)O)C(=O)O, the Michaelis constant (Km) worked out at 190 µM, the kcat is 5.6 s⁻¹ and the kcat/Km is 29000 M⁻¹ s⁻¹.

As usually defined, the kcat is the maximal rate divided by the concentration of active sites. One may read the Km as the substrate concentration at which the rate is half of its maximum. One may read the kcat/Km as the turnover number divided by the Michaelis constant.
